# Assay results published in paper PMC12860359, “Selection and optimization strategy for Rap1-targeting single-domain antibodies as platelet activation markers” (Research and Practice in Thrombosis and Haemostasis, 2025).
# Changes are numbered by the printed parent chain.
# T1: LexA-Rap1B G12V (Homo sapiens, G12V)
# T1 chain: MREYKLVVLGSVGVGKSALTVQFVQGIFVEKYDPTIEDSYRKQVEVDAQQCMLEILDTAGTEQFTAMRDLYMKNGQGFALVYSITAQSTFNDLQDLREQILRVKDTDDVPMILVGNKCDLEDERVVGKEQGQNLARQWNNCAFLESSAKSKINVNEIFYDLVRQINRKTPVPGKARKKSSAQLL
# B1: A141 (VHH)
# VHH: EVQLQASGGGFVQPGGSLRLSCAASGATSKLSAMGWFRQAPGKEREFVSAISAQNDFWTYYADSVKGRFTISRDNSKNTVYLQMNSLRAEDTATYYCAHHFPSTAKSYWGQGTQVTVSS
# B2: Rap1 of human platelets (natural protein, human (endogenous in platelets), UniProt P61224 1-184, looked up)
# chain: MREYKLVVLGSGGVGKSALTVQFVQGIFVEKYDPTIEDSYRKQVEVDAQQCMLEILDTAGTEQFTAMRDLYMKNGQGFALVYSITAQSTFNDLQDLREQILRVKDTDDVPMILVGNKCDLEDERVVGKEQGQNLARQWNNCAFLESSAKSKINVNEIFYDLVRQINRKTPVPGKARKKSSC
# notes: also called active Rap1; source: endogenous, human platelet lysate
# B3: MBP-HA Rap1B WT (natural protein, human, UniProt P61224-1 1-184, looked up)
# chain: T1 chain with V12G
# notes: loaded with GTPγS or GDP before the assays; this is the only recombinant wild-type Rap1B it describes; also called human Rap1B; recombinant Rap1B; source: E. coli BL21DE3, purified (amylose resin); not shown: MBP, N-terminal, kept; HA, N-terminal, kept
# B4: A145 (VHH)
# VHH: EVQLQASGGGFVQPGGSLRLSCAASGATWKHEIMGWFRQAPGKEREFVSAISSQPGLWDYYADSVKGRFTISRDNSKNTVYLQMNSLRAEDTATYYCATPGQRMIEYWGQGTQVTVSS
# How the values were obtained:
# LexA-Rap1B G12V = target: T1, LexA-Rap1B G12V
# [1] = target: T2, VHH-Fc A64 (immunoprecipitation); experiment: co-IP; immunoprecipitation: VHH-Fc (1-2 μg) on Protein A/G magnetic beads incubated overnight at 4 °C with human platelet lysates (~200 μg protein) loaded with GTPγS or from platelets stimulated with TRAP or ADP; Rap1 western blot; conditions: one partner purified
# T2 construct: VHH A64; source: HEK293, transfected; 2 μg used
# VHH-hFcS B89 [2] = target: T3, VHH-hFcS B89; experiment: as above; conditions: one partner purified
# T3 construct: as the VHH of m19 (A47); Bivalent VHH-Fc; Some immunoprecipitations name only 'VHH-Fc B89' without the kind of Fc; also called VHH-Fc B89; source: HEK293, transfected (pHLSec), serum-free medium, purified
# VHH-hFcS B14 = target: T4, VHH-hFcS B14; experiment: ELISA; VHH-FcS (1.25 μg/mL) captured on goat antihuman Fc (Fab')2-coated plates; human platelet lysates (6 × 10^6 platelets/well) loaded with GTPγS, or PRP before and after stimulation with TRAP or ADP; detection with anti-Rap1 monoclonal (Abcam) or polyclonal (Merck) antibody; conditions: one partner purified
# T4 construct: as the VHH of m19 (A47); Bivalent VHH-Fc; also called VHH-Fc B14; source: HEK293, transfected (pHLSec), serum-free medium, purified
# VHH-hFcS A47 [3] = target: T5, VHH-hFcS A47; experiment: as above; conditions: one partner purified
# T5 construct: VHH A47; Bivalent VHH-Fc; also called VHH-FcS A47; VHH-Fc silent A47; source: HEK293, transfected (pHLSec), serum-free medium, purified
# VHH-hFcS B89 [4] = target: T3, VHH-hFcS B89; experiment: BLI; OCTET R2; VHH-hFcS (2.5 μg/mL) on protein A biosensors; Rap1B loaded with GTPγS in solution at 0.04, 0.13, 0.4, 1.2 μM; 20 mM Tris-HCl pH 7.4, 0.1% BSA, 200 mM NaCl, 2 mM EDTA, 10 mM MgCl2; 25 °C; 1:1 fit; conditions: both partners purified
# VHH-hFcS A47 [5] = target: T5, VHH-hFcS A47; experiment: as above; conditions: both partners purified
binder,measurement,setting,value
B1,binding result,LexA-Rap1B G12V,binds
B2,binding result,[1],binds
same,binding result,VHH-hFcS B89 [2],binds
same,binding result,VHH-hFcS B14,binds
same,binding result,VHH-hFcS A47 [3],binds
B3,Kd,VHH-hFcS B89 [4],4.4 nM
same,koff,VHH-hFcS B89 [4],0.000513 s⁻¹
same,kon,VHH-hFcS B89 [4],166000 M⁻¹ s⁻¹
same,Kd,VHH-hFcS A47 [5],17.2 nM
B4,binding result,LexA-Rap1B G12V,binds
